B1: C7 (peptide)
peptide: RPPIFIRRL
modifications: not checked
B2: C24, EBNA3A458-466 (peptide)
peptide: YPLHEQHQM
modifications: not checked
B3: C6 (peptide)
peptide: QPRAPIRPI
modifications: not checked

Tests used:
HLA-B7 (human) = assay: assembly assay (HLA-B7 stabilisation)
HLA-B35 (human) = assay: assembly assay, T2-B35 cell lysate, W6/32 IP, IEF gel

Binder	C50 (HLA-B7 (human)) [µM]	C50 (HLA-B35 (human)) [µM]
B1	0.5	
B2		0.8
B3	0.1	
